Publication PMC10275640
Blank lines part the entries; values can stand above or below the substance they belong to.

How the values were obtained:
[1] = biological target: Uso1ΔCTR-His6x (residues 1–1040) (Aspergillus nidulans); test: AUC + other: dynamic light scattering; sedimentation velocity (20 °C, 48,000 rpm, PBS with 5% glycerol and 1 mM β-mercaptoethanol) and DLS at 20 °C; molecular mass from the Svedberg equation, compared with the predicted monomer
[2] = biological target: Uso1(E6K/G540S)ΔCTR-His6x (residues 1–1040) (Aspergillus nidulans); test: as above
[3] = biological target: Bos1-GST (Bos1 cytoplasmic domain, residues 1–219); test: GST pull-down with purified proteins, anti-His6x western blot quantitation; conditions: 4 data points; parent: est. 0.5; read off a plot
[4] = biological target: Bos1-GST (Bos1 cytoplasmic domain, residues 1–219) (Aspergillus nidulans); test: pull-down; 75 µg SNARE-GST on glutathione Sepharose; His6 preys at 0.2 µM, overnight at 4 °C in 25 mM HEPES-KOH pH 7.5, 150 mM NaCl, 10% glycerol, 0.1% Triton X-100, 0.1 mM DTT; anti-His blot
[5] = biological target: Uso1(E6K/G540S)-His6x (full length) (Aspergillus nidulans); test: AUC + other: dynamic light scattering; sedimentation velocity (20 °C, 48,000 rpm, PBS with 5% glycerol and 1 mM β-mercaptoethanol) and DLS at 20 °C; molecular mass from the Svedberg equation, compared with the predicted monomer
[6] = biological target: Uso1-HA3 (native full-length Uso1 in Aspergillus extract) (Aspergillus nidulans); test: SEC; Aspergillus cell extract on Superose 6 10/300 in 25 mM Tris-HCl pH 7.5, 600 mM KCl, 4 mM EDTA, 1 mM DTT; fractions blotted with α-HA
[7] = biological target: Uso1-His6x (full-length Uso1, residues 1–1103) (Aspergillus nidulans); test: SEC; bacterially expressed, purified His-tagged reference proteins run on the same Superose column; fractions blotted with α-His
[8] = biological target: Bet1-GST (Bet1 cytoplasmic domain, residues 1–144) (Aspergillus nidulans); test: pull-down; 75 µg SNARE-GST on glutathione Sepharose; His6 preys at 0.2 µM, overnight at 4 °C in 25 mM HEPES-KOH pH 7.5, 150 mM NaCl, 10% glycerol, 0.1% Triton X-100, 0.1 mM DTT; anti-His blot
[9] = biological target: Uso1-His6x (full-length Uso1, residues 1–1103) (Aspergillus nidulans); test: AUC + other: dynamic light scattering; sedimentation velocity (20 °C, 48,000 rpm, PBS with 5% glycerol and 1 mM β-mercaptoethanol) and DLS at 20 °C; molecular mass from the Svedberg equation, compared with the predicted monomer
[10] = biological target: Bet1-GST (Bet1 cytoplasmic domain, residues 1–144); test: GST pull-down with purified proteins, anti-His western blot quantitation; conditions: n = 3, read off a plot
[11] = biological target: Bos1-GST (Bos1 cytoplasmic domain, residues 1–219); test: as above; conditions: n = 3; parent: est. 0.7; read off a plot
[12] = biological target: Uso1 CCD-His6x (coiled-coil domain, residues 660–1103) (Aspergillus nidulans); test: AUC + other: dynamic light scattering; sedimentation velocity (20 °C, 48,000 rpm, PBS with 5% glycerol and 1 mM β-mercaptoethanol) and DLS at 20 °C; molecular mass from the Svedberg equation, compared with the predicted monomer

Substance: Uso1ΔCTR-His6x (residues 1–1040) (domain or fragment)
stoichiometry N [1]: 2

Substance: Uso1(E6K/G540S)ΔCTR-His6x (residues 1–1040) (domain or fragment)
stoichiometry N [2]: 2

Substance: Uso1 GHD-His6x (globular head domain, residues 1–659) G540S
response (% of input prey bound) [3]: 35

Substance: Uso1(E6K/G540S)-His6x (full length) (natural protein)
fold change in protein retained against wild-type Uso1 [4]: 5 fold
stoichiometry N [5]: 2

stoichiometry N [6]: 2
Substance: Uso1-HA3 (native full-length Uso1 in Aspergillus extract) (natural protein)

stoichiometry N [7]: 2
percent of the prey pulled down [8]: 70%
stoichiometry N [9]: 2
Substance: Uso1-His6x (full-length Uso1, residues 1–1103) (natural protein)

Substance: Uso1 GHD-His6x (globular head domain, residues 1–659) E6K; G540S
response ([10]; parent: est. 30): 38 % bound prey
response [11]: 21 % bound prey
response (% of input prey bound) [3]: 35

stoichiometry N [12]: 2
Substance: Uso1 CCD-His6x (coiled-coil domain, residues 660–1103) (domain or fragment)

Substance: Uso1-His6x (full-length Uso1, residues 1–1103) E6K; G540S
response ([10]; parent: est. 68): 60 % bound prey

Substance: Uso1 GHD E6K (single mutant), His-tagged (domain or fragment)
fold less efficient than G540S GHD [4]: 3 fold
